Laboratory results as given in paper PMC6837886.

Key:
[1] = biological target: T1, UP1 (RRM1-RRM2 fragment of hnRNP A1) (UniProt P09651 1-196); assay: ITC
[2] = biological target: T1, UP1 (RRM1-RRM2 fragment of hnRNP A1); assay: NMR
[3] = biological target: T1, UP1 (RRM1-RRM2 fragment of hnRNP A1); assay: NMR; remark: listed apart in the source
[4] = biological target: T1, UP1 (RRM1-RRM2 fragment of hnRNP A1); assay: ITC; remark: listed apart in the source
[5] = biological target: T1, UP1 (RRM1-RRM2 fragment of hnRNP A1); assay: NMR; remark: listed apart in the source

T1 sequence (P09651 1-196): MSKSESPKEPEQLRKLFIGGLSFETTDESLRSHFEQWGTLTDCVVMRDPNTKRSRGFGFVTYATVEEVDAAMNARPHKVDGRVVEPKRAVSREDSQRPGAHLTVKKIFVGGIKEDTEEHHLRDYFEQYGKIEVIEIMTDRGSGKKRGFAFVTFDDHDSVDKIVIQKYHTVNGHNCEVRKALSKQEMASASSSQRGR

| Binder | Kd [1] [µM] | Kd [2] [µM] | Kd [3] [µM] | Kd [4] [µM] | Kd [5] [µM] |
| --- | --- | --- | --- | --- | --- |
| GCACCACACGGGUUUCAGACAAAAUCCG (structured_RNA) [SMN1 exon 7 ESE1 hairpin] | 51.3 ± 2.5 | 101 ± 29 | – | – | – |
| GCACCACACGGGUUUUAGACAAAAUCCG (structured_RNA) [SMN2 exon 7 ESE1 hairpin] | 47.4 ± 19.7 | – | 100 ± 20 | – | – |
| GCACCACAGGAUCAAUAGCAGGUGUGGCACACCAGUCAUACCUUGAUCC (structured_RNA) [EV2] | – | – | – | 5.1 ± 1.9 | 11.1 ± 5.1 |
| GCACCACACG (ssRNA) [RNA0] | – | 978 ± 162 | – | – | – |
